# Measured values from publication PMC4333418, “Transcriptional regulator-mediated activation of adaptation genes triggers CRISPR de novo spacer acquisition”.
# T1: Csa3a (Sulfolobus islandicus REY15A) (UniProt F0NH46)
# T1 sequence: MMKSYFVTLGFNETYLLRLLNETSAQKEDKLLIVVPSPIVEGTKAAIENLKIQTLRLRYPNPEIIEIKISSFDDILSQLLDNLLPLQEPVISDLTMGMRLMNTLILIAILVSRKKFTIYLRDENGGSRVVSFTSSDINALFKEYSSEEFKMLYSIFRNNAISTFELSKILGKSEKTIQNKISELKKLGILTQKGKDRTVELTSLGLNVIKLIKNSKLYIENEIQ
# T2: Csa3a (Sulfolobus islandicus REY15A, UniProt F0NH46 1-224)
# T2 sequence: T1 sequence
# B1: csa1 25-bp minimal region (dsDNA)
# DNA 1: ATCCTTACTAAAGTCGGGAAGAAATT
# DNA 2: AATTTCTTCCCGACTTTAGTAAGGAT
# B2: csa1 promoter P3 (-42 to -4) (dsDNA)
# DNA 1: TTACAAGGATCATTATTGTGTATTTTAGATTCTTTTTGC
# DNA 2: GCAAAAAGAATCTAAAATACACAATAATGATCCTTGTAA
# B3: cas1 P2 (-35 to -10) (dsDNA)
# DNA 1: TTAAGACCTTAATAATATCGGAATAT
# DNA 2: ATATTCCGATATTATTAAGGTCTTAA
# How the values were obtained:
# [1] = molecular target: T1, Csa3a (Sulfolobus islandicus REY15A); assay: EMSA; settings: EMSA: 20 mM Tris-HCl pH 8.0, 50 mM KCl, 5% glycerol, 1 mM EDTA, 1 mM DTT, 5 ng/ul poly(dI-dC), 10 pmol probe in 20 ul, 40 C 20 min; footprinting: 10 mM …
# Csa3a [2] = molecular target: T2, Csa3a; assay: EMSA; Csa3a 0.4-1.6 pmol/ul; EMSA: 20 mM Tris-HCl pH 8.0, 50 mM KCl, 5% glycerol, 1 mM EDTA, 1 mM DTT, 5 ng/ul poly(dI-dC), 10 pmol probe in 20 ul, 40 C 20 min; footprinting: 10 mM Tris-HCl pH 7.4, 10 mM MgCl2, 1 mM CaCl2, 0.4 mM DTT, 100 mM KCl, 5% glycerol, 40 C 20 min; settings: protein: recombinant; chain copies: 2; label: 5' biotin
# Csa3a [3] = molecular target: T2, Csa3a; assay: EMSA; Csa3a 1.6 pmol/ul; EMSA: 20 mM Tris-HCl pH 8.0, 50 mM KCl, 5% glycerol, 1 mM EDTA, 1 mM DTT, 5 ng/ul poly(dI-dC), 10 pmol probe in 20 ul, 40 C 20 min; footprinting: 10 mM Tris-HCl pH 7.4, 10 mM MgCl2, 1 mM CaCl2, 0.4 mM DTT, 100 mM KCl, 5% glycerol, 40 C 20 min; settings: protein: recombinant; chain copies: 2; label: 5' biotin (one strand); blunt
# Csa3a [4] = molecular target: T2, Csa3a; assay: EMSA; Csa3a 2.4-6 pmol/ul; EMSA: 20 mM Tris-HCl pH 8.0, 50 mM KCl, 5% glycerol, 1 mM EDTA, 1 mM DTT, 5 ng/ul poly(dI-dC), 10 pmol probe in 20 ul, 40 C 20 min; footprinting: 10 mM Tris-HCl pH 7.4, 10 mM MgCl2, 1 mM CaCl2, 0.4 mM DTT, 100 mM KCl, 5% glycerol, 40 C 20 min; settings: protein: recombinant; chain copies: 2; label: 5' biotin (one strand); blunt
molecule,measurement,setting,value
GCAAAAAGAATCTAAAATACACAATAATGATCCTTGTAAATTTCTTCCCGACTTTAGTAAGGATAATCTTAATAAACGACGATTTTCCTCTTGATGAAGAATAATGGAAAATATAGGGAAAGTGTTCTCCCGTATACGATCCTTGTTTTCCTTTTTCCTTGTTTCGTTTTGGGTTAGGTTGTTATCCTAAATTCATTATCTT (double strand) [csa1 promoter P1 (-205 to -4)],binding,[1],binds
TATATTTTCCATTATTCTTCATCAAGAGGAAAATCGTCGTTTATTAAGATTATCCTTACTAAAGTCGGGAAGAAATTTACAAGGATCATTATTGTGTATTTTAGATTCTTTTTGC (double strand) [csa1 promoter P2 (-118 to -4)],binding,[1],binds
B1,binding result,Csa3a [2],binds
B2,binding result,Csa3a [3],no binding
B3,binding result,Csa3a [4],no binding
